This is an account of results in article PMC3179463.

In general, stoichiometry N refers to the number of molecules, sites or subunits per partner or assembly.

The target of assay [1] is MALT1 tandem Ig-like domains (IgL1–IgL2) (human). The assay is described as follows: SEC; Superdex-200 16/60, 10 mg/mL protein, Tris buffer pH 8.0 (50 mM in the methods, 20 mM in the legend), 500 mM NaCl, 1 mM TCEP, 4°C; mass estimated from standard proteins.
The target is the same in assay [2]. In words: AUC; sedimentation equilibrium, Beckman Optima XL-A, An-60 Ti rotor; 20 mM Tris-HCl pH 8, 200 mM NaCl, 1 mM TCEP; 12,000 and 15,000 rpm, 4°C; 0.25, 0.5 and 1.0 mg/ml; global self-association fit.

“MALT1 tandem Ig-like domains (IgL1–IgL2) (domain or fragment)”: the stoichiometry N in assay [1] was 4; in assay [2], 3.5.
